{"source": "paper PMC11033527", "about": "“Inhibition of SARS-CoV-2 nucleocapsid protein–RNA interaction by guanosine oligomeric RNA”", "key": {"[1]": {"molecular_target": "T1, SARS-CoV-2 nucleocapsid N-terminal RNA-binding domain (NTD) (SARS-CoV-2, UniProt P0DTC9 46-174)", "assay": "EMSA competition; vs 32P-probe RNA; n=4", "conditions": "protein: recombinant; tags: His-tag (pET-15b)"}, "[2]": {"molecular_target": "T1, SARS-CoV-2 nucleocapsid N-terminal …", "assay": "EMSA competition; vs 32P-probe RNA; n=6", "conditions": "protein: recombinant; tags: His-tag (pET-15b)"}, "[3]": {"molecular_target": "T1, SARS-CoV-2 nucleocapsid N-terminal …", "assay": "EMSA competition; vs 32P-probe RNA; n=3", "conditions": "protein: recombinant; tags: His-tag (pET-15b)"}, "[4]": {"molecular_target": "T1, SARS-CoV-2 nucleocapsid N-terminal …", "assay": "EMSA competition; vs 32P-probe RNA; n=7", "conditions": "protein: recombinant; tags: His-tag (pET-15b)"}, "[5]": {"molecular_target": "T1, SARS-CoV-2 nucleocapsid N-terminal …", "assay": "EMSA; 800 ng NTD, 5 ng RNA", "conditions": "protein: recombinant; tags: His-tag (pET-15b); label: 32P-CTP internal"}, "[6]": {"molecular_target": "SARS-CoV-2 nucleocapsid protein full length (NP) (SARS-CoV-2, UniProt P0DTC9 1-419)"}}}
{"binder": "GGGGGG (ssRNA)", "note": "[G6]", "values": [{"measurement": "IC50", "setting": "[1]", "value": "0.62 ± 0.07", "unit": "µM"}]}
{"binder": "CCAGCG (ssRNA)", "note": "[mIn-1 (mIn-1-1)]", "values": [{"measurement": "IC50", "setting": "[2]", "value": "3.48 ± 1.46", "unit": "µM"}]}
{"binder": "AAAAAA (ssRNA)", "note": "[A6]", "values": [{"measurement": "IC50", "setting": "[3]", "value": "22.9 ± 16.4", "unit": "µM"}]}
{"binder": "CCGGCG (ssRNA)", "note": "[In-1]", "values": [{"measurement": "IC50", "setting": "[4]", "value": "34.3 ± 27.8", "unit": "µM"}]}
{"binder": "GGGCGAGGCCACGCGGAGUACGAUCGAGUGUACAG (ssRNA)", "note": "[32P-probe RNA (T7 transcript)]", "values": [{"measurement": "binding result", "setting": "[5]", "value": "binds"}]}
{"binder": "CGAGGCCACGCGGAGUACGAUCGAGUGUACAG (ssRNA)", "note": "[FITC-probe RNA (32-base)]", "values": [{"measurement": "binding result", "setting": "[6]", "value": "binds"}]}
{"binder": "GGGGGGGGGGGG (ssRNA)", "note": "[G12]", "values": [{"measurement": "binding result", "setting": "[6]", "value": "binds"}]}
